Measured values published in the DeepSol protein solubility set.

test: soluble on expression in E. coli; label from the status in PepcDB or PDB records

| Sequence | soluble on expression in E. coli |
| --- | --- |
| MGSDKIHHHHHHMRILFVTEYYPPIHMGGAEISLKILVNKLAKLGHEVTVITPNYTKYKTETEISKNLRVIRFKSWRYFLFKKQLRKISSEIYLRKKSSYYFQLNGYIKLSSFEIMKVVKELLQKEDFDVIHANNLESILGLSKLQVNTKVAHLRDFALLCWNRGLNNNGKLCEGCSLTNIRQCMGANYILGSALVHEINKRKNVLGKFDKILAISNFVKMEFVKRLNIPTEKISVLYNPITQEIVSNISKEEARQYLNLPEDKTIVLFVGTLTELKGAHLIPKIAKELPEHLFVVVGDGPLRKMFTEFPLENVLYVGYQPMEILRHYYKASDILLVPSLWHEPFGRVIIEGAANGCYVVGSDKGAIPEIIHWIGYGTSVPPQSKYFVEAIKNAPQTTKHEKLKIKIINYSHKYAEKFIKAIME | not soluble |
| TGLRPSGTVSCPICMDGYSEIVQNGRLIVSTECGHVFCSQCLRDSLKNANTCPTCRKKINHK | soluble |
| MAHDLARGDKSDLRDKVVKPITNNVSVLVMGVDESDVRGKEYGDAIRTDALLLATFNKDSKTVKLLSIPRDTYTYIPVEKKKDKITHAHAYGSTKNGKDGGPQASIDAVEKLLNVPVDYFVKFNFKSFMKIVDDLGGIEVDVPVEFTEQDSNDNADAIHLKKGVQKLNSEEALALARTRHIDSDAMRGQRQQLVIEAILKKLTSVGSVTKVGNIIDDINGQFVTNLTFDDMLSFYKYGSDSEIEKLQIQGEDCYMAKGLEHHHHHH | soluble |
| SAPGWLKEMRGEHIPETEEYGISSFSFLARRPFHPEKFYHFLHDTEKFGKLIRSKGYFWLATRPQFSGQWNQAGGIAHYGFAAMFWKSVPKKDWPIDEESLNAIEKQWVEPFGDMRQELVFIGQQLDQGAMTNALNECLL | not soluble |
| MGSDKIHHHHHHMYREYQPCGLLAPYVDKIWEFKGSPEYGMRINVLPDGCTDLIFALGGITQPVGSEGRIMPSCRSFFVGPMKRYSELVAYTETVHMVGIRFHPCGLFRFMDLPVQELGGQRISSADLGIKLFDDSFTERLYELPDLRSRIQCIETVLVRSMHKHDVVDKQIVFAVNHIHLYHGQREIRLLAEDTCLCQRHLERRFKLFTGFTPKEYSRIVKFRHAIDLLKNTTEANNLLSVAVNAGYYDVSHFLKEVKTLSGGTAESFLSPTLPQEGLLTYIEK | not soluble |
| MDDSMDYPDRDGDDLDQFQGTARSQVVQNQPHDEEVNLSESESFAGADEPPAAPRDASLIESHDMDEGPAAPARTLSPTGYEAGKHAPGGIANSDEAPPGAYNAQEYKHLNVGEDVRELFSYIGRYKPQTVELDTRIKPFIPDYIPAVGGIDEFIKVPRPDTKPDYLGLKVLDEPAAKQSDPTVLTLQLRQLSKEAPGAKADMVGRLEHTDENKAKKIQQWIASINDIHKAKPAATVNYSKRMPEIEALMQEWPPEVETFLKTMHMPSGDVELDIKTYARLVCTLLDIPVYDDPVESLHVLFTLYLEFKNNPIFRQHMEMENKLDGMSGGGGGMMGGGADVLGL | not soluble |
| MGSDKIHHHHHHMENERKRILELVKQGIISTEEALTLLENISKKEGKTAAKENIRRSAAPREEEQVEEETKEEPSYDYSKGWNNQGNPYTPPKSRKRRPEPTPENHERDEEEGGENSSKDREDSMRNMVNDLSQAGEKIGSFLNSAFKQVKDMPFPFLTSTKIERDFIYHDTTLSILEFEIANGNIEFKPSDSNDIKVHAMIKLFKEYPEDEALKIFFDKTTLRVDEETLRFESKSKQIVTNLTVYLPRREYDYVSVKMLNGNFHMDELSGRDLFVKTTNGNISIGTLNATLAEIESINGNVRIQNGEIRDVALKTFNGNVAVKGNYYSTNLQTKNGNVNYQLTGNEATFLKAKTGAGNIDVVVPAAIGVDGRFHTNLGKLLLDLKDAEILESKTESVSKSIIFTKLPDAADSSLKIEAEATTGSVKIRDVK | not soluble |
| MITIDGNGAVASVAFRTSEVIAIYPITPSSTMAEQADAWAGNGLKNVWGDTPRVVEMQSEAGAIATVHGALQTGALSTSFTSSQGLLLMIPTLYKLAGELTPFVLHVAARTVATHALSIFGDHSDVMAVRQTGCAMLCAANVQEAQDFALISQIATLKSRVPFIHFFDGFRTSHEINKIVPLADDTILDLMPQVEIDAHRARALNPEHPVIRGTSANPDTYFQSREATNPWYNAVYDHVEQAMNDFSAATGRQYQPFEYYGHPQAERVIILMGSAIGTCEEVVDELLTRGEKVGVLKVRLYRPFSAKHLLQALPGSVRSVAVLDRTKEPGAQAEPLYLDVMTALAEAFNNGERETLPRVIGGRYGLSSKEFGPDCVLAVFAELNAAKPKARFTVGIYDDVTNLSLPLPENTLPNSAKLEALFYGLGSDGSVSATKNNIKIIGNSTPWYAQGYFVYDSKKAGGLTVSHLRVSEQPIRSAYLISQADFVGCHQLQFIDKYQMAERLKPGGIFLLNTPYSADEVWSRLPQEVQAVLNQKKARFYVINAAKIARECGLAARINTVMQMAFFHLTQILPGDSALAELQGAIAKSYSSKGQDLVERNWQALALARESVEEVPLQPVNPHSANRPPVVSDAAPDFVKTVTAAMLAGLGDALPVSALPPDGTWPMGTTRWEKRNIAEEIPIWKEELCTQCNHCVAACPHSAIRAKVVPPEAMENAPASLHSLDVKSRDMRGQKYVLQVAPEDCTGCNLCVEVCPAKDRQNPEIKAINMMSRLEHVEEEKINYDFFLNLPEIDRSKLERIDIRTSQLITPLFEYSGACSGCGETPYIKLLTQLYGDRMLIANATGCSSIYGGNLPSTPYTTDANGRGPAWANSLFEDNAEFGLGFRLTVDQHRVRVLRLLDQFADKIPAELLTALKSDATPEVRREQVAALRQQLNDVAEAHELLRDADALVEKSIWLIGGDGWAYDIGFGGLDHVLSLTENVNILVLDTQCYSNTGGQASKATPLGAVTKFGEHGKRKARKDLGVSMMMYGHVYVAQISLGAQLNQTVKAIQEAEAYPGPSLIIAYSPCEEHGYDLALSHDQMRQLTATGFWPLYRFDPRRADEGKLPLALDSRPPSEAPEETLLHEQRFRRLNSQQPEVAEQLWKDAAADLQKRYDFLAQMAGKAEKSNTD | soluble |
| SMPEQSNDYRVVVFGAGGVGKSSLVLRFVKGTFRDTYIPTIEDTYRQVISCDKSVCTLQITDTTGSHQFPAMQRLSISKGHAFILVFSVTSKQSLEELGPIYKLIVQIKGSVEDIPVMLVGNKCDETQREVDTREAQAVAQEWKCAFMETSAKMNYNVKELFQELLTLETRRNMSLNIDGKRSGKQKRTDRVKGKCTLM | soluble |
| MWKWEAENDAKGVVVIAHNILEHTGRYAYVITMLRRNGYHVIMGDLPGQGQTSRANKGQIENFQTYHESLLDWLKIANEYKIPTYVLGVGLGGLILLNLLEKVELPIEGMMLISPMLELQKNGKNRKDKLVSNIGKISKDTRFNVGVEPKDLTRNLEIVEETVNDGLMLKKATYHWYNTINETMKDTMAHIHDIQPMPTLLMYGTKDLIVDTRAIDEFKEKYQTPELYFKAWQGFYHEVHNEPERDEVMRYILTFLNNSVN | not soluble |
| MGRYIGPVCRLCRREGVKLYLKGERCYSPKCAMERRPYPPGQHGQKRARRPSDYAVRLREKQKLRRIYGISERQFRNLFEEASKKKGVTGSVFLGLLESRLDNVVYRLGFAVSRRQARQLVRHGHITVNGRRVDLPSYRVRPGDEIAVAEKSRNLELIRQNLEAMKGRKVGPWLSLDVEGMKGKFLRLPDREDLALPVNEQLVIEFYSR | soluble |
| MVQSLNTKVDLVIDATAFTGLTDYGQIMIGDRGFEFYHAKDPRKFIQIPWEEVDYVLASVMFKGKWIPRYAIQTKKNGTYTFASKEPKRVLRAIREYVDPDHMVQSLSFFDVIKRGILSIGKKKK | not soluble |
| MAVLKIISWNVNGLRAVHRKGFLKWFMEEKPDILCLQEIKAAPEQLPRKLRHVEGYRSFFTPAERKGYSGVAMYTKVPPSSLREGFGVERFDTEGRIQIADFDDFLLYNIYFPNGKMSEERLKYKLEFYDAFLEDVNRERDSGRNVIICGNFNTAHREIDLARPKENSNVSGFLPVERAWIDKFIENGYVDTFRMFNSDPGQYTWWSYRTRARERNVGWRLDYFFVNEEFKGKVKRSWILSDVMGSDHCPIGLEIELLEHHHHHH | soluble |
| MIQVYKYDENFMFVEPLVVTEIDEKGDYIFPDNCTSVPLPDSPSYYLPRFDLSKQVWIETASQEYIDSLSPPPEEPSDVELLGQSLAEARILILKQNRIILNLQNEVKNLKDGTTALEHHHHHH | soluble |
| MVVGGFGVGKTTLVRSVSEIRPLSTEETMTRAGETVDDISEVRGKSATTVAFDFGRISLDTRNILYLFGAPGQERFWFLWDRLFAGTLGAVVLVDTRRIDDSWYAIDRLERHGTPFIVACNDFGGPAHTPEQIREALDLDPHVPLIDCDARSRESSKRVLITLVEHLKSLYVPRAPELALLEHHHHHH | not soluble |
| MKIAIEGCMHGDLDNVYKTIQHYEQIHNTKVDLLLCCGDFQAVRNEKDMDSLNVPRKYREMKSFWKYYSGQEVAPIPTIFIGGNHEASNYLWELYYGGWAATNIYFLGFAGVVKFGNVRIGGLSGIYNERHYRSGHFERPPYNESTIRSVYHVRDYDVQKLMQLEEPLDIFLSHDWPVGITDYGDSESLMRQKPYFRQEIEEKTLGSKPAALLLEKLKPQYWFSAHLHCKFAAAVQHGNDGSVTKFLALDKCLPGKKFLQIIEIESEPGPFEVLYDEEWLAITRKFNSIFPLTRRYTNVRYTIPNKLPTKKWERTDIPASLAPSDTYSVKLFIYSFYLPIVMKLHQAPMTEMFSAVSRIKHVLLCIADLPTYDSEEIPIDDIDEIEEMEEAKADDHTRDDA | soluble |
| MNIIWQLGTCNIRQVLAEVPEPKPPYTTLASVFKNLERKHYIKPFREGKTYHYRICISREEYATRTMHRMVDNYFTGSYKHLVQFFAAGSDISVKDLREVIDMIEKGEESE | not soluble |
| MAHHHHHHMGGDVTFSLTKTRDTFADWFDAIMDAAELVDRRYPVKGCVVFRPYGFFMENAIMRLCEEEYAKVGISQILFPTVIPESFLKKESDHIKGFEAECFWVEKGGLQPLEERLALRPTSETAIYSMFSKWVRSYKDLPLKIHQTCTIFRHETKNTKPLIRVREIHWNEAHCCHATAEDAVSQLSDYWKVIDTIFSDELCFKGQKLRRVCWDRFPGADYSEVSDVVMPCGRVLQTAGIHNLGQRFSSTFDILYANKANESVHPYLTCAGISTRVLACALSIHGDSGGLVLPPLIAPIHVVIIPIGCGKKNNQESDQQVLGKVNEIADTLKSKLGLRVSIDDDFSKSMGDKLYYYELKGVPLRIEVGQRDLANGQCIVVPRDVGKDQKRVIPITEVMKVSSHTTENHELVVKNVIKDELDAYKARLKEKAFAFHNSMVTNCKSFDEIVACIENKGGLARFPFYTTEADGEVWDKKLKDACSAEIRGHNPDENVLPGEVCALSGKPAVCYMYCAKSY | soluble |
| MEDFWEDWDLAFEDVFPKSLKEALEGIKEIPTYGERGASRFMYNLLKLEKEKRKEIIEKVLEAVEVLRPCRECFLITDREVCPICSDEKRSKKFICVVEESQDAYAIEKLERYKGVYHVLQGHIAPLEGISAEDLTIDALMERIKKYQPKEVILATNPNVEGEATANYIAGLIRRKFPAVKITRTAYGFQFGSLIEFVDEYSLEKSMENRK | soluble |
| MNIEALERLRGWMRAKGFSRFYVVRPENFAWLVGGANTLGMGESVAYLEVGEEVVLHTSAIEHPRMVEEEAPGLPARVHPWYAFPPPPGPNDLEHDLTPLRLVLSREAQGAFTHLGREAAMAVGEVVRSARPEWTEYALAGALAEALWGRGLRPLLLLVAVDERLFRYRHPLPKGKPLGRAFMAVVCAERRGLVANLTRMASFGHGEVEARYRKVLEVEAAALSASRPGATLGEVFAALQGAYARVGFPRAWGEHHQGGVGGYRSREVVATPGHPLVLEAGMVLAWNPSLSGAKVEDTFLLTEGGLLNLTEDPFWPAVEVEGRRRPDLWRGGG | soluble |
| MTASFPTRVYLLRHAKAAWAAPGERDFDRGLNEAGFAEAEIIADLAADRRYRPDLILSSTAARCRQTTQAWQRAFNEGIDIVYIDEMYNARSETYLSLIAAQTEVQSVMLVGHNPTMEATLEAMIGEDLLHAALPSGFPTSGLAVLDQDDSAASGKNRWRLIDFLAPGK | soluble |
